Experimental data: publication PMC4176350, “A high security double lock and key mechanism in HUH relaxases controls oriT-processing for plasmid conjugation”

Molecular target: T1, TrwCR (TrwC relaxase domain, TrwC-N293) (Escherichia coli? (plasmid R388), UniProt Q47673 1-293)
T1 sequence: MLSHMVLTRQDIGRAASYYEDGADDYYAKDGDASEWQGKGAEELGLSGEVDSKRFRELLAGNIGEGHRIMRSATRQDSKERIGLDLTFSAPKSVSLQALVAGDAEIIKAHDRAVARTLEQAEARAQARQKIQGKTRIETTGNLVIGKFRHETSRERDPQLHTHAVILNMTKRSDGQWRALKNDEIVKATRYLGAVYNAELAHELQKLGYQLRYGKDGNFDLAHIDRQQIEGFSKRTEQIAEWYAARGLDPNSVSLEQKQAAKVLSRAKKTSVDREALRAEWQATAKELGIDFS
Experiment: X-ray crystallography; 1:1.5 protein:DNA; Crystallization: TrwCR 6 mg/ml in 200 mM NaCl, 20 mM Tris-HCl pH 7.5, 1 mM DTT, 0.5 mM EDTA; reservoir 2 M ammonium phosphate, 0.1 M Tris-HCl pH 8.5, 22 C
Conditions: protein: recombinant; hairpin with 3' single-stranded tail

GCACCGAAAGGTGCGTATTCTTGGT (structured_DNA) [RIV(23+2), nic mutant IV]
binding result: binds
